Tests used:
[1] = target: ligands on KG1a cells (human (endogenous in KG1a)); assay: flow cytometry on cells; KG1a cells stained with 10 ug/ml E-selectin protein in HBSS with 5% FBS and 2 mM CaCl2, 4 °C, 20 min; detected by Strep-tag II mAb and PE anti-mouse IgG1
[2] = target: CD44/HCELL (hematopoietic cell E- and/or L-selectin ligand) (human (endogenous in KG1a)) (UniProt P16070); assay: SPR; Biacore T-100, CM5 chip, 25 °C; CD44/HCELL captured from KG1a lysate by immobilised Hermes-3; E-selectin proteins injected in sequential concentrations at 20 ul/min, 90 s each; running buffer 50 mM Tris pH 8.0, 1% Triton X-100, 50 mM NaCl, 1 mM CaCl2; isotype control subtracted; kon calculated from KD and koff
Sequence of CD44/HCELL (hematopoietic cell E- and/or L-selectin ligand) (human (endogenous in KG1a)) (P16070 other isoform, or with tags, fused parts or gaps): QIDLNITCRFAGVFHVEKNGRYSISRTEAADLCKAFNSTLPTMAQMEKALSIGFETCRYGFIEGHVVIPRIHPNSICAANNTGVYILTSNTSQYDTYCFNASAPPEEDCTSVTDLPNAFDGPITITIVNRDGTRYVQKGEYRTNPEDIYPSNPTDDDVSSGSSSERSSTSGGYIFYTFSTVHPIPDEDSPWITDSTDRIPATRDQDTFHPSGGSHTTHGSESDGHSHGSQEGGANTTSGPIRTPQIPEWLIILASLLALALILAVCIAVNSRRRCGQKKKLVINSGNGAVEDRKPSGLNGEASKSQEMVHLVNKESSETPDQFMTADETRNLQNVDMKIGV

[3] = target: E-S6-IgG (mouse E-selectin extracellular region fused to the Fc region of human IgG1, from silkworm) (mouse | human) (UniProt Q00690); assay: native gel or EMSA; purified E-selectin proteins in native PAGE sample buffer on a 10% TBE gel, Tris-glycine buffer, Coomassie stain

| Substance | percent of the live KG1a population bound [1] | Kd [2] | kon [2] | fluorescence signal, fold lower than E-S6 [1] | fluorescence signal (geometric mean) [1] | stoichiometry N [3] |
| --- | --- | --- | --- | --- | --- | --- |
| E-S0 (mouse E-selectin lectin and EGF domains, no SCR domains) (domain or fragment) | 43% | 17.2 µM | 4 M⁻¹ s⁻¹ |  |  |  |
| E-S2 (truncated mouse E-selectin with only the first two SCR domains) (domain or fragment) | 76% | 5.68 µM | 30 M⁻¹ s⁻¹ | 3 fold |  |  |
| E-S2-A28H (E-S2 with the A28H mutation in the lectin domain) (domain or fragment) | 84% | 2.5 µM | 80 M⁻¹ s⁻¹ | 2 fold | 1690 |  |
| E-S6-IgG (mouse E-selectin extracellular region fused to the Fc region of human IgG1, from silkworm) (from UniProt Q00690 22-557) (Fc fusion) | 96% | 0.17 µM | 950 M⁻¹ s⁻¹ |  |  | 2 |

— PMC7076219
